In article PMC5141497, “NMR studies on the interactions between yeast Vta1 and Did2 during the multivesicular bodies sorting pathway” (Scientific Reports, 2016):

Biological target: T1, Vta1 N-terminal domain (residues 1–167) (S. cerevisiae, UniProt Q06263 1-167)
T1 construct: Vta1, S. cerevisiae, N-terminal domain with two tandem MIT domains, residues 1-167; Isotope labelled (15N, 13C, 70% 2H) or unlabelled, depending on the NMR sample; also called Vta1NTD; WT Vta1NTD; source: E. coli BL21(DE3), purified (Ni-NTA, ULP1 cleavage, second Ni-NTA, Resource Q); not shown: His6, N-terminal, cleaved; SUMO, N-terminal, cleaved
T1 sequence (looked up): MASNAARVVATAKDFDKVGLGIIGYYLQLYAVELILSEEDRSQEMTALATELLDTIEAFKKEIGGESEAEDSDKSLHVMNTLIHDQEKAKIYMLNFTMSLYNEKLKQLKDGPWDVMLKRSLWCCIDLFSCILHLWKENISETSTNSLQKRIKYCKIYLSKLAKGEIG
Experiment: ITC; about 0.1 mM Vta1NTD titrated with 2.0 mM Did2_(176–204) peptide, iTC-200, 25 °C, 25 mM sodium phosphate pH 7.0, 50 mM NaCl, one set of sites model
Settings: both partners purified

- Kd: 12.8 ± 1 µM
- dH: -2.7 kcal/mol
- stoichiometry N: 1.16 ± 0.0266
B1: Did2 fragment (176–204 aa) (peptide)
chain: WNVPEIKAKEVNVDDEKEDKLAQRLRALRG
notes: extra tryptophan inserted at the N-terminus of the peptide to estimate its concentration; Natural stretch with one added N-terminal Trp; Isotope labelled (15N, 13C) or unlabelled, depending on the NMR sample; source: E. coli BL21(DE3), purified (Ni-NTA, Resource Q, ULP1 cleavage, Superdex 75), lyophilized; not shown: His6, N-terminal, cleaved; SUMO, N-terminal, cleaved
